A short description of the series: Km and kcat of expressed HPPDs (HPLC/UV quantitation of homogentisate). The format is biochemical, Avena sativa. The conditions noted are these: for Km / kcat: HPPDs expressed in extracts, 25° C., pH 7.0; for kcat: one active-site per dimer assumed; for Rate: kcat relative to non-mutated HPPD SEQ ID NO:14: for V217I, L271I, L271V, V258M, A326R estimated from initial rates in cell extracts, pH 7.0, 25° C., 120 μM HPP. Here is the method: The assay solution was transferred to Chromacol 03-CVG HPLC vials, sealed and the amount of homogentisate formed in a 40 μl aliquot determined by injection onto a reverse phase Aqua C18 5μ 75×4.6 mm HPLC column running 5.5% acetonitrile 0.1% TFA (Buffer A) at 1.5 ml/min. The column was eluted at 1.5 ml/minute using a 2 minute wash in buffer A, followed by a 2 minute wash in a 30/70 mixture of buffer A and 100% Acetonitrile, and a further 3.5 minute wash in buffer A. The elution of homogentisate was monitored by UV at 292 nm and the amount formed in each reaction quantified by comparison with a standard calibration curve.
Km and Vmax values were determined (for example FIG. 1) using a non linear least squares fit using Grafit 4™ software (Erithacus Software, Middlesex, UK). Kcat values were determined by dividing the maximum rate, Vmax expressed in nmol/second by the number of nmoles of HPPD enzyme (based on the concentration determined by active-site titration).
Experiments were carried out as described for Table 4. ‘Sulc’ denotes sulcotrione and ‘nd’ means ‘no data’. For V217I, L271I, L271V, V258M and A326R, the relative values of kcat were estimated from comparisons of the initial rates in cell extracts of similarly prepared and expressed HPPDs in conventional enzyme activity assays at pH 7.0, 25° C. and at a substrate concentration of 120 μM HPP.

B1: SEQ ID #24: SEQ ID NO:14 with substitution of M for L within the sequence motif G(I,V)LVDRD (protein, listed as Avena sativa)
chain: MPPTPATATGAAAAAVTPEHAARSFPRVVRVNPRSDRFPVLSFHHVELWCADAASAAGRFSFALGAPLAARSDLSTGNSAHASLLLRSGALAFLFTAPYAPPPQEAATAATASIPSFSADAARTFAAAHGLAVRSVGVRVADAAEAFRVSVAGGARPAFAPADLGHGFGLAEVELYGDVVLRFVSYPDETDLPFLPGFERVSSPGAVDYGLTRFDHVVGNVPEMAPVIDYMKGFLGFHEFAEFTAEDVGTTESGLNSVVLANNSEAVLLPLNEPVHGTKRRSQIQTYLEYHGGPGVQHIALASNDVLRTLREMRARTPMGGFEFMAPPQAKYYEGVRRIAGDVLSEEQIKECQELGVMVDRDDQGVLLQIFTKPVGDRPTFFLEMIQRIGCMEKDEVGQEYQKGGCGGFGKGNFSELFKSIEDYEKSLEVKQSVVAQKS
As to B1, the Km came out at 4.74 µM and the kcat came to 4.35 s⁻¹.

B2: SEQ ID #18: SEQ ID NO:14 with substitution of T for I within the sequence motif SQIQTY (protein, listed as Avena sativa)
chain: MPPTPATATGAAAAAVTPEHAARSFPRVVRVNPRSDRFPVLSFHHVELWCADAASAAGRFSFALGAPLAARSDLSTGNSAHASLLLRSGALAFLFTAPYAPPPQEAATAATASIPSFSADAARTFAAAHGLAVRSVGVRVADAAEAFRVSVAGGARPAFAPADLGHGFGLAEVELYGDVVLRFVSYPDETDLPFLPGFERVSSPGAVDYGLTRFDHVVGNVPEMAPVIDYMKGFLGFHEFAEFTAEDVGTTESGLNSVVLANNSEAVLLPLNEPVHGTKRRSQTQTYLEYHGGPGVQHIALASNDVLRTLREMRARTPMGGFEFMAPPQAKYYEGVRRIAGDVLSEEQIKECQELGVLVDRDDQGVLLQIFTKPVGDRPTFFLEMIQRIGCMEKDEVGQEYQKGGCGGFGKGNFSELFKSIEDYEKSLEVKQSVVAQKS
Take B2: the Km was 36 µM and the turnover number (kcat) was determined as 17.94 s⁻¹.

B3: L281I: mutant of HPPD SEQ ID NO:14, called L271I in the text (protein)
chain: MPPTPATATGAAAAAVTPEHAARSFPRVVRVNPRSDRFPVLSFHHVELWCADAASAAGRFSFALGAPLAARSDLSTGNSAHASLLLRSGALAFLFTAPYAPPPQEAATAATASIPSFSADAARTFAAAHGLAVRSVGVRVADAAEAFRVSVAGGARPAFAPADLGHGFGLAEVELYGDVVLRFVSYPDETDLPFLPGFERVSSPGAVDYGLTRFDHVVGNVPEMAPVIDYMKGFLGFHEFAEFTAEDVGTTESGLNSVVLANNSEAVLLPINEPVHGTKRRSQIQTYLEYHGGPGVQHIALASNDVLRTLREMRARTPMGGFEFMAPPQAKYYEGVRRIAGDVLSEEQIKECQELGVLVDRDDQGVLLQIFTKPVGDRPTFFLEMIQRIGCMEKDEVGQEYQKGGCGGFGKGNFSELFKSIEDYEKSLEVKQSVVAQKS
modifications: mutant HPPD polypeptide
On to B3, for which the “Rate: kcat relative to non-mutated HPPD SEQ ID NO:14” value was 1.7.

B4: SEQ ID #26: SEQ ID NO:14 with M for L within G(I,V)LVDR and M for L within SGLNS (protein, listed as Avena sativa)
chain: MPPTPATATGAAAAAVTPEHAARSFPRVVRVNPRSDRFPVLSFHHVELWCADAASAAGRFSFALGAPLAARSDLSTGNSAHASLLLRSGALAFLFTAPYAPPPQEAATAATASIPSFSADAARTFAAAHGLAVRSVGVRVADAAEAFRVSVAGGARPAFAPADLGHGFGLAEVELYGDVVLRFVSYPDETDLPFLPGFERVSSPGAVDYGLTRFDHVVGNVPEMAPVIDYMKGFLGFHEFAEFTAEDVGTTESGMNSVVLANNSEAVLLPLNEPVHGTKRRSQIQTYLEYHGGPGVQHIALASNDVLRTLREMRARTPMGGFEFMAPPQAKYYEGVRRIAGDVLSEEQIKECQELGVMVDRDDQGVLLQIFTKPVGDRPTFFLEMIQRIGCMEKDEVGQEYQKGGCGGFGKGNFSELFKSIEDYEKSLEVKQSVVAQKS
With B4, the Km is 10.6 µM and the kcat was found to be 4.05 s⁻¹.

B5: SEQ ID #14: HPPD derived from Avena sativa; single deletion variant of the Avena sativa HPPD (protein)
chain: MPPTPATATGAAAAAVTPEHAARSFPRVVRVNPRSDRFPVLSFHHVELWCADAASAAGRFSFALGAPLAARSDLSTGNSAHASLLLRSGALAFLFTAPYAPPPQEAATAATASIPSFSADAARTFAAAHGLAVRSVGVRVADAAEAFRVSVAGGARPAFAPADLGHGFGLAEVELYGDVVLRFVSYPDETDLPFLPGFERVSSPGAVDYGLTRFDHVVGNVPEMAPVIDYMKGFLGFHEFAEFTAEDVGTTESGLNSVVLANNSEAVLLPLNEPVHGTKRRSQIQTYLEYHGGPGVQHIALASNDVLRTLREMRARTPMGGFEFMAPPQAKYYEGVRRIAGDVLSEEQIKECQELGVLVDRDDQGVLLQIFTKPVGDRPTFFLEMIQRIGCMEKDEVGQEYQKGGCGGFGKGNFSELFKSIEDYEKSLEVKQSVVAQKS
modifications: mutant HPPD polypeptide
For the molecule B5, the Km was found to be 5.38 µM, the kcat was 6.46 s⁻¹ and the “Rate: kcat relative to non-mutated HPPD SEQ ID NO:14” value was 1.

B6: L281V: mutant of HPPD SEQ ID NO:14, called L271V in the text (protein)
chain: MPPTPATATGAAAAAVTPEHAARSFPRVVRVNPRSDRFPVLSFHHVELWCADAASAAGRFSFALGAPLAARSDLSTGNSAHASLLLRSGALAFLFTAPYAPPPQEAATAATASIPSFSADAARTFAAAHGLAVRSVGVRVADAAEAFRVSVAGGARPAFAPADLGHGFGLAEVELYGDVVLRFVSYPDETDLPFLPGFERVSSPGAVDYGLTRFDHVVGNVPEMAPVIDYMKGFLGFHEFAEFTAEDVGTTESGLNSVVLANNSEAVLLPVNEPVHGTKRRSQIQTYLEYHGGPGVQHIALASNDVLRTLREMRARTPMGGFEFMAPPQAKYYEGVRRIAGDVLSEEQIKECQELGVLVDRDDQGVLLQIFTKPVGDRPTFFLEMIQRIGCMEKDEVGQEYQKGGCGGFGKGNFSELFKSIEDYEKSLEVKQSVVAQKS
modifications: mutant HPPD polypeptide
Consider B6, for which the “Rate: kcat relative to non-mutated HPPD SEQ ID NO:14” value is 2.

B7: V217I: V217I mutant of HPPD SEQ ID NO:14 (protein)
chain: MPPTPATATGAAAAAVTPEHAARSFPRVVRVNPRSDRFPVLSFHHVELWCADAASAAGRFSFALGAPLAARSDLSTGNSAHASLLLRSGALAFLFTAPYAPPPQEAATAATASIPSFSADAARTFAAAHGLAVRSVGVRVADAAEAFRVSVAGGARPAFAPADLGHGFGLAEVELYGDVVLRFVSYPDETDLPFLPGFERVSSPGAVDYGLTRFDHIVGNVPEMAPVIDYMKGFLGFHEFAEFTAEDVGTTESGLNSVVLANNSEAVLLPLNEPVHGTKRRSQIQTYLEYHGGPGVQHIALASNDVLRTLREMRARTPMGGFEFMAPPQAKYYEGVRRIAGDVLSEEQIKECQELGVLVDRDDQGVLLQIFTKPVGDRPTFFLEMIQRIGCMEKDEVGQEYQKGGCGGFGKGNFSELFKSIEDYEKSLEVKQSVVAQKS
modifications: mutant HPPD polypeptide
On to B7, for which the “Rate: kcat relative to non-mutated HPPD SEQ ID NO:14” value is listed as 1.1.

B8: SEQ ID #21: SEQ ID NO:14 with substitution of V for I within the sequence motif SQIQTY (protein, listed as Avena sativa)
chain: MPPTPATATGAAAAAVTPEHAARSFPRVVRVNPRSDRFPVLSFHHVELWCADAASAAGRFSFALGAPLAARSDLSTGNSAHASLLLRSGALAFLFTAPYAPPPQEAATAATASIPSFSADAARTFAAAHGLAVRSVGVRVADAAEAFRVSVAGGARPAFAPADLGHGFGLAEVELYGDVVLRFVSYPDETDLPFLPGFERVSSPGAVDYGLTRFDHVVGNVPEMAPVIDYMKGFLGFHEFAEFTAEDVGTTESGLNSVVLANNSEAVLLPLNEPVHGTKRRSQVQTYLEYHGGPGVQHIALASNDVLRTLREMRARTPMGGFEFMAPPQAKYYEGVRRIAGDVLSEEQIKECQELGVLVDRDDQGVLLQIFTKPVGDRPTFFLEMIQRIGCMEKDEVGQEYQKGGCGGFGKGNFSELFKSIEDYEKSLEVKQSVVAQKS
As for B8, the Km stood at 5.98 µM and the kcat is 5.47 s⁻¹.

B9: SEQ ID #22: SEQ ID NO:14 with substitution of M for L within the sequence motif SGLNS (protein, listed as Avena sativa)
chain: MPPTPATATGAAAAAVTPEHAARSFPRVVRVNPRSDRFPVLSFHHVELWCADAASAAGRFSFALGAPLAARSDLSTGNSAHASLLLRSGALAFLFTAPYAPPPQEAATAATASIPSFSADAARTFAAAHGLAVRSVGVRVADAAEAFRVSVAGGARPAFAPADLGHGFGLAEVELYGDVVLRFVSYPDETDLPFLPGFERVSSPGAVDYGLTRFDHVVGNVPEMAPVIDYMKGFLGFHEFAEFTAEDVGTTESGMNSVVLANNSEAVLLPLNEPVHGTKRRSQIQTYLEYHGGPGVQHIALASNDVLRTLREMRARTPMGGFEFMAPPQAKYYEGVRRIAGDVLSEEQIKECQELGVLVDRDDQGVLLQIFTKPVGDRPTFFLEMIQRIGCMEKDEVGQEYQKGGCGGFGKGNFSELFKSIEDYEKSLEVKQSVVAQKS
As for B9, the Km amounted to 12.4 µM and the turnover number (kcat) was 5.79 s⁻¹.
